Columns and labels:
[1] = target: T1, GST-IQGAP1-C (Homo sapiens, UniProt P46940); assay: GST pull-down assay and Western blotting; type: binding; details: 2 h at 4 °C, Western blot with anti-Cdc42
T1 construct: the C-terminal half of IQGAP1 (comprising amino acids 864–1657) containing a GST-tag; made in house; host or cells: Escherichia coli BL-21
T1 sequence (P46940 864-1657): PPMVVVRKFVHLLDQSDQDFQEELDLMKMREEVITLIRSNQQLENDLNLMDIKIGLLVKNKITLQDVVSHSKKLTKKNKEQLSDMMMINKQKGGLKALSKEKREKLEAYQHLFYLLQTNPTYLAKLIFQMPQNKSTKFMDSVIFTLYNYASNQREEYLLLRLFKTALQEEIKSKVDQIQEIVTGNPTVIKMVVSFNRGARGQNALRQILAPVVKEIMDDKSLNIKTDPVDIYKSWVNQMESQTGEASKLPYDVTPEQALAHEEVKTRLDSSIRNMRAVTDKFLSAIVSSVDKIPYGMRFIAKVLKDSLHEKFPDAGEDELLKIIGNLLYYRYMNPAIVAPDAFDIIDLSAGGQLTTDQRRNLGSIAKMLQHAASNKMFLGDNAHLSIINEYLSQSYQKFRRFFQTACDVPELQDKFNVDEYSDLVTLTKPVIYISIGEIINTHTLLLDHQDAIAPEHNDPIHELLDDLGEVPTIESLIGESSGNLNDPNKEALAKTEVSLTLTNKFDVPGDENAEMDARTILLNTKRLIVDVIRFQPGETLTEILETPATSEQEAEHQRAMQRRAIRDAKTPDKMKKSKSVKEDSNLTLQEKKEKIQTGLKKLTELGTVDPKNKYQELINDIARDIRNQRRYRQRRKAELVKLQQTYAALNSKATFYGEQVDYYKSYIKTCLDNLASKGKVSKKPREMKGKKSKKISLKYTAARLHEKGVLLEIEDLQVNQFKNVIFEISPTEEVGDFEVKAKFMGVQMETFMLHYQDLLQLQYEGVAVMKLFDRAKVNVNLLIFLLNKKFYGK
Procedure: (a) Schematic representation of IQGAP1 protein. The C-terminal half of IQGAP1 (amino acids 864–1657) was used in the HTRF assay. (b) GST pull-down assay. GST-IQGAP1-C was incubated with His-tagged Cdc42-N17 or Cdc42-Q61L for 2 h at 4 °C. GST alone was incubated with Cdc42-Q61L as the negative control. Complexes were isolated using glutathione-Sepharose and resolved by SDS-PAGE. The gel was cut at 70 kDa. The upper part of the gel was stained with Coomassie blue. The lower portion of the gel was transferred to PVDF membrane and probed with anti-Cdc42 antibodies. (c) Scheme of the HTRF assay in 384–well format showing fluorescent labeled GST-IQGAP1-C (donor Europium cryptate, K) and His-Cdc42-Q61L (acceptor XL665). (d) Time resolved fluorescence was detected at 615 and 665 nm on the Biotek Synergy using recombinant proteins. The Y-axis represents the ratio of acceptor to donor emission wavelength multiplied by 10,000. The means and standard errors of two replicates are shown. The green bar (Buffer) indicates samples without His-Cdc42. […] No single label is printed for the pair, so the substance label joins the two printed names.

[2] = target: C-terminal half of IQGAP1 (amino acids 864–1657); parameters: method as in PMID 17984089; details: scintillation proximity assay; read-out: equilibrium dissociation constant (Kd) of Cdc42-Q61L binding to IQGAP1 fragment; cited from earlier work

Substance | binding to IQGAP1 in GST pulldown [1] | Kd [2] [nM]
Cdc42-N17: dominant negative Cdc42 mutant, negative control | no detectable binding | –
Cdc42-Q61L: constitutively active Cdc42 mutant construct that binds IQGAP1 with high affinity | binds to the C-terminal region of IQGAP1 | 24 ± 4
